{"source": "patent US8343503B2", "about": "“Contiguous overlapping peptides for treatment of birch pollen allergy” (Anergis S.A., priority 2009, dated 2013)", "molecules": {"B1": {"name": "AllerT2: SEQ ID NO: 2, aa 48-118 of SEQ ID 9 (Bet v 1) contiguous overlapping peptide (peptide)", "chain": "NGGPGTIKKISFPEGFPFKYVKDRVDEVDHTNFKYNYSVIEGGPIGDTLEKISNEIKIVATPDGGSILKIS"}, "B2": {"name": "r Bet v 1: Purified recombinant Bet v 1, birch pollen major allergen, purchased from BIOMAY; SEQ ID 9, Swissprot P15494 (protein)", "chain": "MGVFNYETETTSVIPAARLFKAFILDGDNLFPKVAPQAISSVENIEGNGGPGTIKKISFPEGFPFKYVKDRVDEVDHTNFKYNYSVIEGGPIGDTLEKISNEIKIVATPDGGSILKISNKYHTKGDHEVKAEQVKASKEMGETLLRAVESYLLAHSDAYN"}, "B3": {"name": "AllerT5: SEQ ID NO: 5, aa 65-160 of SEQ ID 9 (Bet v 1) contiguous overlapping peptide (peptide)", "chain": "FKYVKDRVDEVDHTNFKYNYSVIEGGPIGDTLEKISNEIKIVATPDGGSILKISNKYHTKGDHEVKAEQVKASKEMGETLLRAVESYLLAHSDAYN"}, "B4": {"name": "AllerT4: SEQ ID NO: 4, aa 2-85 of SEQ ID 9 (Bet v 1) contiguous overlapping peptide (peptide)", "chain": "GVFNYETETTSVIPAARLFKAFILDGDNLFPKVAPQAISSVENIEGNGGPGTIKKISFPEGFPFKYVKDRVDEVDHTNFKYNYS"}}, "key": {"[1]": {"test_system": "birch pollen allergic volunteers", "details": "human, in vivo", "method": "(§1) The allergenic response of the peptides was evaluated in vivo by SPT with each of the 5 peptides (AllerT1, AllerT2, AllerT3, AllerT4 and AllerT5) and with the 2 sets (AllerT1-3 and AllerT4-5) on all patients. For each peptide, a 20 μl drop was applied on the forearm at 3 different concentrations (10, 1 and 0.1 μM). […] The weal diameter was evaluated by taking the maximal diameter. SPT was considered positive when the weal diameter was 4 mm or more with an erythema (Hoffmann, A. et al., J Allergy Clin Immunol, 99(2):227-32 (1997). Reactions resulting in a weal diameter below 4 mm, while exceeding 2 mm, were also recorded and classified as “dubious”."}, "[2]": {"test_system": "Bet v 1 specific IgE", "assay": "Competition ELISA: IgE binding of COPs compared to r Bet v 1", "set-up": "species or system human", "details": "for competition for IgE binding to coated r Bet v 1: serial dilutions starting at 10 μM pre-incubated with serum of birch pollen allergic subjects; for competition with Bet v 1 for IgE binding / residual IgE binding: sera from three allergic patients (data not shown)", "description": "Recombinant Bet v 1 at 0.5 μg/ml (r Bet v 1 obtained from Biomay, Austria) was coated overnight on 96-well Nunc Maxisorp® immunoplates (Life Technologies, Basel, Switzerland). After blocking with 1% BSA, ten-fold dilutions of patient serum were added. […] The sera of three allergic patients were selected for high IgE level and clear signal over background and used to test for competition with the peptides. Serial dilutions of each COP, namely AllerT1, AllerT2, AllerT3, AllerT4, AllerT5, AllerT6, AllerT7 and AllerT8, or mixtures of AllerT1-3, AllerT4-5 and AllerT6-8, starting at 10 μM, were pre-incubated with the three selected sera overnight at 4° C. Sera were then incubated on r Bet v 1 coated 96-well plates and residual IgE binding was determined as described above. r Bet v 1 dilutions were used as control for inhibition, whereas BSA was used as control for possible non-specific inhibition."}, "[3]": {"test_system": "birch pollen allergic volunteers", "assay": "Skin prick tests (SPT) of allergic patients", "details": "for Positive skin reactions (subjects) / Reactivity lower than defined threshold (dubious) (subjects): 20 volunteers", "method": "as §1"}, "[4]": {"test_system": "basophils (IgE-positive cells) in blood from a birch pollen allergic donor", "assay": "Basophil degranulation test (Basotest)", "type": "cell-based, human", "details": "blood of birch pollen allergic donor; r Bet v 1 0.0025-25 nano-molar, COPs starting 10 fold higher; FIG. 4", "description": "Basotest® (ORPEGEN Pharma Heidelberg, Germany) was used for the quantitative determination of in vitro basophile degranulation. Heparinized blood (100 μl) from a birch pollen allergic donor was first incubated with a stimulation buffer for 20 min at 37° C., and then with or without chemotactic peptide formylmethionylleucylphenylalanine (fMLP) as positive and negative controls respectively. Aliquots of blood were incubated in parallel with 100 μl allergen solution diluted in a saline solution for 20 min at 37° C. A dose response curve was performed with 25, 2.5, 0.25, 0.025 and 0.0025 nano-molar r Bet v 1 as well as starting 10 fold higher with AllerT mixes (AllerT1-T3, AllerT4-5 and AllerT6-8). The activation process was stopped by incubating the blood samples at 4° C. for 10 min. The samples were then incubated for 20 min at +4° C. with 20 μl of phycoerythrin (PE)-conjugated anti-IgE and fluorescein isothyocyanate (FITC)-conjugated anti-gp53 (CD63). Erythrocytes were subsequently removed by the addition of 2 ml of lysing solution (Becton-Dickinson). Cells were washed twice with PBS solution and resuspended in 200 μl of PBS solution and analyzed within 1 h by cytofluorimetry (FASCalibur, BectonDickinson). The basophile population was gated on the PE anti-IgE positive cells and the expression of gp53 (CD63) was analyzed on this population. […]"}, "[5]": {"details": "dilution 1:1, weal 4 mm or more with erythema"}}, "note": "Where two headings read alike, the source gives them in different places. No end group written: not given here."}
{"molecule": "VATPDGGSILKISNKYHTKGDHEVKAEQVKASKEMGETLLRAVESYLLAHSDAYN [AllerT3]", "values": [{"measurement": "Positive skin reactions (subjects)", "setting": "[1]", "result": 0}]}
{"molecule": "CC[C@H](C)[C@H](NC(=O)[C@H](C)NC(=O)[C@H](CCC(N)=O)NC(=O)[C@@H]1CCCN1C(=O)[C@H](C)NC(=O)[C@@H](NC(=O)[C@H](CCCCN)NC(=O)[C@@H]1CCCN1C(=O)[C@H](Cc1ccccc1)NC(=O)[C@H](CC(C)C)NC(=O)[C@H](CC(N)=O)NC(=O)[C@H](CC(=O)O)NC(=O)CNC(=O)[C@H](CC(=O)O)NC(=O)[C@H](CC(C)C)NC(=O)[C@@H](NC(=O)[C@H](Cc1ccccc1)NC(=O)[C@H](C)NC(=O)[C@H](CCCCN)NC(=O)[C@H](Cc1ccccc1)NC(=O)[C@H](CC(C)C)NC(=O)[C@H](CCCNC(=N)N)NC(=O)[C@H](C)NC(=O)[C@H](C)NC(=O)[C@@H]1CCCN1C(=O)[C@@H](NC(=O)[C@@H](NC(=O)[C@H](CO)NC(=O)[C@@H](NC(=O)[C@@H](NC(=O)[C@H](CCC(=O)O)NC(=O)[C@@H](NC(=O)[C@H](CCC(=O)O)NC(=O)[C@H](Cc1ccc(O)cc1)NC(=O)[C@H](CC(N)=O)NC(=O)[C@H](Cc1ccccc1)NC(=O)[C@@H](NC(=O)CN)C(C)C)[C@@H](C)O)[C@@H](C)O)[C@@H](C)O)C(C)C)[C@@H](C)CC)[C@@H](C)CC)C(C)C)C(=O)N[C@@H](CO)C(=O)N[C@@H](CO)C(=O)N[C@H](C(=O)N[C@@H](CCC(=O)O)C(=O)N[C@@H](CC(N)=O)C(=O)N[C@H](C(=O)N[C@@H](CCC(=O)O)C(=O)NCC(=O)N[C@@H](CC(N)=O)C(=O)NCC(=O)NCC(=O)O)[C@@H](C)CC)C(C)C", "note": "[AllerT1]", "values": [{"measurement": "Positive skin reactions (subjects)", "setting": "[1]", "result": 0}]}
{"molecule": "B1", "values": [{"measurement": "competition for IgE binding to coated r Bet v 1", "setting": "[2]; FIG. 1", "result": "no competition"}, {"measurement": "Positive skin reactions (subjects)", "setting": "[3]; [5]", "result": 0}, {"measurement": "Reactivity lower than defined threshold (dubious) (subjects)", "setting": "[3]; dilution 1:1, weal below 4 mm", "result": 0}, {"measurement": "Positive skin reactions (subjects)", "setting": "[3]; dilution 1:10", "result": 0}, {"measurement": "Reactivity lower than defined threshold (dubious) (subjects)", "setting": "[3]; dilution 1:10", "result": 0}, {"measurement": "Positive skin reactions (subjects)", "setting": "[3]; dilution 1:100", "result": 0}, {"measurement": "Reactivity lower than defined threshold (dubious) (subjects)", "setting": "[3]; dilution 1:100", "result": 0}]}
{"molecule": "B2", "values": [{"measurement": "IC50", "setting": "[2]; depending on the serum of the donor, FIG. 1, read-out: concentration competing with IgE present in the sera (50% inhibition)", "result": "0.0001 to 10", "unit": "µM"}, {"measurement": "basophil degranulation (IgE-positive cells expressing CD63)", "setting": "[4]", "result": "concentration dependent manner"}, {"measurement": "SPT result", "setting": "[3]; birch pollen extract 100,000 SQ, recombinant Bet v 1 1 μM", "result": "positive in all volunteers"}, {"measurement": "Positive skin reactions (subjects)", "setting": "[3]; [5]", "result": 20}, {"measurement": "Positive skin reactions (subjects)", "setting": "[3]; dilution 1:10", "result": 16}, {"measurement": "Positive skin reactions (subjects)", "setting": "[3]; dilution 1:100", "result": 2}]}
{"molecule": "B3", "values": [{"measurement": "competition with Bet v 1 for IgE binding / residual IgE binding", "setting": "[2]", "result": "do not show such binding"}, {"measurement": "competition for IgE binding to coated r Bet v 1", "setting": "[2]; FIG. 1", "result": "comparable result"}, {"measurement": "Positive skin reactions (subjects)", "setting": "[3]; [5]", "result": 0}, {"measurement": "Reactivity lower than defined threshold (dubious) (subjects)", "setting": "[3]; dilution 1:1, weal below 4 mm", "result": 1}, {"measurement": "Positive skin reactions (subjects)", "setting": "[3]; dilution 1:10", "result": 0}, {"measurement": "Reactivity lower than defined threshold (dubious) (subjects)", "setting": "[3]; dilution 1:10", "result": 0}, {"measurement": "Positive skin reactions (subjects)", "setting": "[3]; dilution 1:100", "result": 0}, {"measurement": "Reactivity lower than defined threshold (dubious) (subjects)", "setting": "[3]; dilution 1:100", "result": 0}]}
{"molecule": "B4", "values": [{"measurement": "competition with Bet v 1 for IgE binding / residual IgE binding", "setting": "[2]", "result": "do not show such binding"}, {"measurement": "competition for IgE binding to coated r Bet v 1", "setting": "[2]; FIG. 1", "result": "comparable result"}, {"measurement": "Positive skin reactions (subjects)", "setting": "[3]; [5]", "result": 0}, {"measurement": "Reactivity lower than defined threshold (dubious) (subjects)", "setting": "[3]; dilution 1:1, weal below 4 mm", "result": 0}, {"measurement": "Positive skin reactions (subjects)", "setting": "[3]; dilution 1:10", "result": 0}, {"measurement": "Reactivity lower than defined threshold (dubious) (subjects)", "setting": "[3]; dilution 1:10", "result": 0}, {"measurement": "Positive skin reactions (subjects)", "setting": "[3]; dilution 1:100", "result": 0}, {"measurement": "Reactivity lower than defined threshold (dubious) (subjects)", "setting": "[3]; dilution 1:100", "result": 1}]}
